Literature values, collected in patent US20190298804A1, “ACTIVATION OF THE ENDOGENOUS ILEAL BRAKE HORMONE PATHWAY FOR ORGAN REGENERATION AND RELATED COMPOSITIONS, METHODS OF TREATMENT, DIAGNOSTICS, AND REGULATORY SYSTEMS” (VOLANT HOLDINGS GMBH, priority 2013, published 2019).

System: MIN-6 cells
Conditions: immunoprecipitation and western blotting

B1: BTC: member of the epidermal growth factor family (protein, UniProt P35070 32-111, looked up)
Betacellulin: DGNSTRSPETNGLLCGDPEENCAATTTQSKRKGHFSRCPKQYKHYCIKGRCRFVVAEQTPSCVCDEGYIGARCERVDLFY
modifications: Betacellulin
notes: member of the epidermal growth factor family
phosphorylation of EGF receptors: induced phosphorylation of only ErbB-1 and ErbB-2
